Results published in patent US20190269788A1 (PIERRE FABRE MEDICAMENT, published 2019).
Numbering of substitutions follows the chain as printed. Like-named read-outs stand apart in the source and are kept apart here. Values belong to the binder of their own block, whether it stands above or below them.

Experiments:
[1] = molecular target: T1, human IGF-1R, native, on MCF-7 cells or on hIGF-1R transfected cells (human, UniProt P08069 31-1367); test: cell-based or functional assay
[2] = molecular target: T1, human IGF-1R, native, on MCF-7 cells or …; test: cell-based or functional assay; remark: listed apart in the source
[3] = molecular target: T1, human IGF-1R, native, on MCF-7 cells or …; test: cell-based or functional assay; remark: listed apart in the source
[4] = molecular target: T2, rhDtk-Fc (R and D Systems, cat No 859-DK) (human, UniProt Q06418 41-428, limits assumed); test: ELISA on coated rhDtk-Fc, anti-mouse IgG-HRP, TMB
T2 construct: Bought
T2 sequence (looked up): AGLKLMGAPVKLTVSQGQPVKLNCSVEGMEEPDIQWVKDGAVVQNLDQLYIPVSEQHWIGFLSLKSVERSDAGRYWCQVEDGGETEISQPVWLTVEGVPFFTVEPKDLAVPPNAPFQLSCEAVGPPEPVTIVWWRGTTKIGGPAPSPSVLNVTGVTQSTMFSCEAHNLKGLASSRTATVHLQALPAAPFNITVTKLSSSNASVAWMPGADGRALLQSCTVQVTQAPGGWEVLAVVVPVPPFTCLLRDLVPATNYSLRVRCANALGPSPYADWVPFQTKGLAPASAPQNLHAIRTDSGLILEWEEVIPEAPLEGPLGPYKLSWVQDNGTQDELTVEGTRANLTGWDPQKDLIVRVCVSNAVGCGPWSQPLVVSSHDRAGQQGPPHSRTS
Procedure: (§1) Then 1/2 serial dilutions were done over 12 columns. Plates were washed and a goat anti-mouse (Jackson) specific IgG-HRP was added for 1 h at 37° C. Reaction development was performed using the TMB substrate solution. […] Coating controls were performed in presence of a goat anti-human IgG Fc polyclonal serum labelled with HRP (Jackson, ref 109-035-098) and/or in presence of a HRP-coupled anti-Histidine antibody (R and D Systems, ref: MAB050H).

[5] = molecular target: T3, human Axl receptor on human tumor cells (SN12C and other lines) (human, UniProt P30530 26-894); test: FACS titration on MDA-MB-231 cells, anti-mouse Alexa 488
T3 construct: also called membrane Axl receptor; cell-surface Axl
Procedure: (§2) After 3 washes in phosphate-buffered saline (PBS) supplemented with 1% BSA and 0.01% NaN₃, cells were incubated with secondary antibody Goat anti-mouse Alexa 488 (1/500° dilution) for 20 minutes at 4° C. After 3 additional washes in PBS supplemented with 1% BSA and 0.1% NaN₃, cells were analyzed by FACS (Facscalibur, Becton-Dickinson). At least 5000 cells were assessed to calculate the mean value of fluorescence intensity.

[6] = molecular target: T4, rhMer-Fc (R and D Systems, cat No 891-MR) (human, UniProt Q12866 26-499, limits assumed); test: ELISA on coated rhMer-Fc, anti-mouse IgG-HRP, TMB
T4 construct: Bought
T4 sequence (looked up): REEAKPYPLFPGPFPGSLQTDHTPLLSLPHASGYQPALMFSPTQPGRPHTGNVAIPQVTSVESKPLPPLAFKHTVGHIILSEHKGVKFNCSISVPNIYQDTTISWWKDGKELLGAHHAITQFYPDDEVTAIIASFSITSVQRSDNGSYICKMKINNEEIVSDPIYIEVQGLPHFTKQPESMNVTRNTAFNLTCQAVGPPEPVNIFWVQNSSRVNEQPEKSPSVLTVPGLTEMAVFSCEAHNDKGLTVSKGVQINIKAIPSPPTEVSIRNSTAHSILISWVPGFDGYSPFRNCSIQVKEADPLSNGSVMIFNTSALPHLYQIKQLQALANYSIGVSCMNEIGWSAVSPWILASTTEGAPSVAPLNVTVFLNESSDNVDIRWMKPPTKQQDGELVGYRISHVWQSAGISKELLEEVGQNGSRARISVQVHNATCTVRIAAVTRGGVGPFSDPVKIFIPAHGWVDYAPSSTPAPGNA
Procedure: as §1

[7] = molecular target: T5, rhAxl-Fc protein (R and D Systems, cat No 154-AL) (human, UniProt P30530 26-451); test: ELISA on coated rhAxl-Fc, anti-mouse IgG-HRP, TMB
T5 construct: Bought; also called recombinant human Axl-Fc
Procedure: as §1

[8] = molecular target: T3, human Axl receptor on human tumor cells …; test: FACS titration on SN12C cells, anti-mouse Alexa 488
Procedure: as §2

T3 sequence (P30530 26-894 D266N limits assumed): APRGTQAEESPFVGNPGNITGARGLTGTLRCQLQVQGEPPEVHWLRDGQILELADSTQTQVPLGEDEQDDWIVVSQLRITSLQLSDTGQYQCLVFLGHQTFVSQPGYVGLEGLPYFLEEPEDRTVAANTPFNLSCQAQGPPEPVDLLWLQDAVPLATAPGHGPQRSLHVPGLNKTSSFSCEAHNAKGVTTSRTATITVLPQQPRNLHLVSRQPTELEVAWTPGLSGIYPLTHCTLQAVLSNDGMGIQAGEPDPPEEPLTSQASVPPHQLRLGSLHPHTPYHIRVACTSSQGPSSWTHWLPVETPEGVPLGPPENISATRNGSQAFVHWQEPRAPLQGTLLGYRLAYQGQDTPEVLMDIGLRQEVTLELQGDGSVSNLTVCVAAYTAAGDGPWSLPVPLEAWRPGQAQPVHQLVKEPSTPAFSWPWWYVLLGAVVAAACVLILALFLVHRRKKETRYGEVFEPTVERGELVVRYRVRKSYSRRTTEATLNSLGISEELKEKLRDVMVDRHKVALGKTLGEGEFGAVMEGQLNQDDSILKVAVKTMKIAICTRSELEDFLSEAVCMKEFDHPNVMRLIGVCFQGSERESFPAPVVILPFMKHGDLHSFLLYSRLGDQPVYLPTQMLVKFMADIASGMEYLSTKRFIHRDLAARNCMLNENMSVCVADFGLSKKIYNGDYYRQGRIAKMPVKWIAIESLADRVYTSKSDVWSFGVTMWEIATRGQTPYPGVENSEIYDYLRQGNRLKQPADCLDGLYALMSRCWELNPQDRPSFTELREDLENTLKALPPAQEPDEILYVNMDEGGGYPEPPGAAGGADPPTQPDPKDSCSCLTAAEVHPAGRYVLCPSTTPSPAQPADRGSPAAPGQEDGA
T5 sequence (P30530 26-451 D266N): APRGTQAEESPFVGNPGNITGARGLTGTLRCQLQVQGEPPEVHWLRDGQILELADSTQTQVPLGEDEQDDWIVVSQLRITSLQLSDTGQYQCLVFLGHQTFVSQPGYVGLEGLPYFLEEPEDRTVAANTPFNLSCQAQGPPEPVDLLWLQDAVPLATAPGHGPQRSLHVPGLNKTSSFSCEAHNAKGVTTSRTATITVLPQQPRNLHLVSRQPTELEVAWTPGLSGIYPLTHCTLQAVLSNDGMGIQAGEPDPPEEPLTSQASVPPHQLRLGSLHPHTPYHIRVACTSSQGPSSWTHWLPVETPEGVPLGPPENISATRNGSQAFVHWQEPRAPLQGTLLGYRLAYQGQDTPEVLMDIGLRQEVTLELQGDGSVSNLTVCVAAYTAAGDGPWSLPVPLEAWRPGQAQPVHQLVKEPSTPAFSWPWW

B1: c212A11 (antibody, human IgG1, kappa, V domains shown)
VH: QVQLQQSGPELVKPGASVKMSCKASGYTFTSYYIHWVKQRPGQGLEWIGWIWPGDGSTKYNEKFKGKTTLTADKSSSTAYMFLSSLTSEDSAVYFCASPMITPNYAMDYWGQGASVTVSS
VL: DIQMTQTTSSLSASLGDRVTISCRASQDINKYLNWYQQQPDGTVKLLIYYTSRLHSGVPSRFSGRGSGTDYSLTISNLEQEDIATYFCQQGSTLPYTFGGGTKLEIKR
phosphorylation of hIGF-1R as % of phosphorylation induced by IGF-1 (MCF-7, 10 µg/ml Ab) [1]: < 10%
ΔMFI (MCF-7, 4°C minus 37°C, 4 h) [2]: 322 MFI

B2: m212A11 (antibody, V domains shown)
VH: B1 VH
VL: DIQMTQTTSSLSASLGDRVTISCRASQDINKYLNWYQQQPDGTVKLLIYYTSRLHSGVPSRFSGRGSGTDYSLTISNLEQEDIATYFCQQGSTLPYTFGGGTKLEIK
inhibition of hIGF-1R phosphorylation in response to IGF-1 (MCF-7) [1]: > 80%

B3: c208F2 (antibody, human IgG1, kappa, V domains shown)
VH: B1 VH with H35Y, I48L, G66D, S77N
VL: B1 VL with N30S, V44I, L78V
% internalization (MCF-7, 10 µg/ml) [3]: 82%
ΔMFI (MCF-7, 4°C minus 37°C, 4 h) [3]: 278 MFI
phosphorylation of hIGF-1R as % of phosphorylation induced by IGF-1 (MCF-7, 10 µg/ml Ab) [1]: < 10%
ΔMFI (MCF-7, 4°C minus 37°C, 4 h) [2]: 288 MFI

B7: c214F8 (antibody, human IgG1, kappa)
heavy: not shown
light: DIQMTQTTSSLSASLGDRVTFSCRASQDISKYLNWYQQQPDGTIKLLIYYTSRLHSGVPSRFSGRGSGTDYSLTITNLEQEDIATYFCQQGSALPYTFGGGTKLEIKRTVAAPSVFIFPPSDEQLKSGTASVVCLLNNFYPREAKVQWKVDNALQSGNSQESVTEQDSKDSTYSLSSTLTLSKADYEKHKVYACEVTHQGLSSPVTKSFNRGEC
phosphorylation of hIGF-1R as % of phosphorylation induced by IGF-1 (MCF-7, 10 µg/ml Ab) [1]: < 10%
ΔMFI (MCF-7, 4°C minus 37°C, 4 h) [2]: 403 MFI

B8: c219D6 (antibody, human IgG1, kappa, V domains shown)
VH: B1 VH with A16D, T28S, Y33F, A72T, S84N
VL: B1 VL with N30S
phosphorylation of hIGF-1R as % of phosphorylation induced by IGF-1 (MCF-7, 10 µg/ml Ab) [1]: < 10%
ΔMFI (MCF-7, 4°C minus 37°C, 4 h) [2]: 353 MFI

B9: c213B10 (antibody, human IgG1, kappa)
heavy: not shown
light: B7 light with F21I
phosphorylation of hIGF-1R as % of phosphorylation induced by IGF-1 (MCF-7, 10 µg/ml Ab) [1]: < 10%
ΔMFI (MCF-7, 4°C minus 37°C, 4 h) [2]: 369 MFI

B12: hz208F2 VH3/VL3 (antibody, human IgG1, kappa, V domains shown)
VH: QVQLVQSGAEVKKPGASVKMSCKASGYTFTSYYIYWVKQAPGQGLEWLGWIWPGDGSTKYNEKFQGRVTLTADKSSNTAYMFLSSLRSEDTAVYFCASPMITPNYAMDYWGQGTLVTVSS
VL: DIQMTQSPSSLSASVGDRVTISCRASQDISKYLNWYQQKPGKAPKLLIYYTSRLHSGVPSRFSGRGSGTDYSLTISNLQPEDFATYFCQQGSTLPYTFGGGTKVEIKR
% internalization (MCF-7, 10 µg/ml) [3]: 87%
ΔMFI (MCF-7, 4°C minus 37°C, 4 h) [3]: 344 MFI

Further lines, with some results ahead:

inhibition of hIGF-1R phosphorylation in response to IGF-1 (MCF-7) [1]: > 80%
B4: m214F8 (antibody, V domains shown)
VH: B1 VH with P9S, M20L, K63R
VL: B2 VL with I21F, N30S, V44I, S76T, T93A

% internalization (MCF-7, 10 µg/ml) [3]: 88%
ΔMFI (MCF-7, 4°C minus 37°C, 4 h) [3]: 294 MFI
inhibition of hIGF-1R phosphorylation in response to IGF-1 (MCF-7) [1]: > 80%
B5: m208F2 (antibody, V domains shown)
VH: B1 VH with H35Y, I48L, G66D, S77N
VL: B2 VL with N30S, V44I, L78V

inhibition of hIGF-1R phosphorylation in response to IGF-1 (MCF-7) [1]: > 80%
B6: m219D6 (antibody, V domains shown)
VH: B1 VH with A16D, T28S, Y33F, A72T, S84N
VL: B2 VL with N30S

inhibition of hIGF-1R phosphorylation in response to IGF-1 (MCF-7) [1]: > 80%
B10: m213B10 (antibody, V domains shown)
VH: B1 VH with P9S, K63R
VL: B2 VL with N30S, V44I, S76T, T93A

EC50 (read off the curve) [5]: ~1 nM
EC50 (read off the curve) [7]: ~1 nM
EC50 (read off the curve) [8]: ~0.9 nM
B11: m1613F12 (antibody, V domains shown)
VH: EVHLQQSGAELVKPGASVKLSCTASGFNIRDTYIHWVKQRPEQGLEWIGRLDPANGHTKYGPNFQGRATMTSDTSSNTAYLQLSSLTSEDTAVYYCARGAYYYGSSGLFYFDYWGQGTTLSVSS
VL: DVQITQSPSYLATSPGETITINCRASKSISKYLAWYQEKPGKTNKLLIYSGSTLQSGVPSRFSGSGSGTDFTLTISSLEPEDFAMYFCQQHHEYPLTFGAGTELELK
notes: Murine monoclonal antibody, detected with anti-mouse IgG; also called murine 1613F12; hybridoma I-4505
binding result [4]: no binding (tested: log (M) -7.5 (about 3e-8 M))
binding result [6]: no binding (tested: log (M) -7.5 (about 3e-8 M))
